*1 amine or outer side, *2 acyl side, *3 side chain or, on linkers, in order; H or OH if unused. Where a SMILES comes first, the peptide text is derived from it. [ ]: non-standard residue; d: D form. The star is where a group is joined. X1 = O=C(O)CN1CCN(CC(=O)O)CCN(CC(=O)NCCCOCCOCCOCCCN*)CCN(CC(=O)O)CC1; DOTA = O=C(O)CN1CCN(CC(=O)O)CCN(CC(=O)*)CCN(CC(=O)O)CC1; Hyp = O=C(O)[C@@H]1C[C@@H](O)CN1; Tic = O=C(O)[C@@H]1Cc2ccccc2CN1; Cha = N[C@@H](CC1CCCCC1)C(=O)O; Cit = NC(=O)NCCC[C@H](N)C(=O)O; Suc = O=C(CCC(=O)[*:2])[*:1]; Octanoyl = CCCCCCCC(=O)*; Ahx = NCCCCCC(=O)O
How the values were obtained:
[1] = system: DU4475/A549 xenograft model; assay: in vivo; conditions: mouse
Excerpt: (§1) For in vivo experiments, at least 8-week-old female athymic NMRI-Foxn1^nu /Foxn1^nu mice (Janvier Labs, Saint-Berthevin, France) were used. Animal care followed institutional guidelines and all experiments were approved by local animal research authorities. For the generation of tumor xenografts, 5 x 10^6 cells of both DU4475 and A549 cells were inoculated subcutaneously into the right and left shoulder, respectively (1:1 phosphate-buffered saline [PBS]/Matrigel Basement Membrane Matrix High Concentration, Corning, Corning, USA). Part of the animals received SW13 lung cancer cells as a CMKLR1-negative control tumor. For the analysis of biodistribution, only data of […] and A549 xenograft tumors are used. Tumors were allowed to grow for two to four weeks (tumor volume > 100 mm^3) after cell inoculation.
(§2) Radiolabeling experiments were performed on a Modular Lab PharmTracer synthesis module (Eckert & Ziegler, Berlin, Germany) which allows fully automated cassette-based labeling of gallium tracers utilizing a pharmaceutical grade ^68Ge/^68Ga generator (GalliaPharm, 1.85 GBq, good manufacturing practice [GMP]-certified; Eckert & Ziegler GmbH, Berlin, Germany). Cassettes were GMP-certified and sterile. They were used without pre-conditioning of the cartridges. The gallium generator was eluted with aqueous HCl (0.1 M, 7 mL) and the eluate was purified on an ion-exchange cartridge followed by elution using 1 mL of 0.1 M HCl in acetone. The peptide-DOTA conjugate (50 µg from a stock solution 1 mg/mL in 10% dimethyl sulfoxide [DMSO] in water) was mixed with 500 µL 0.1 M HEPES buffer (pH 7) and heated for 500 seconds at 95 °C. After the reaction, the mixture was passed through a C-18 cartridge for purification and the tracer was eluted from the cartridge with ethanol. In order to control the quality of radiolabeling, the radiochemical yield, purity, and specific activity for all five peptide-DOTA conjugates and each individual labeling experiment was determined. Overall, a radiochemical yield of 82.1% ± 6.7%, a radiochemical purity of 98.1 ± 4.6% and a molar activity of 8.6 GBq/µmol ± 2.7 GBq/µmol was achieved (Table S1). Before animal injection, the activity was equilibrated to neutral pH using 1 M sodium hydrogen carbonate. It was further diluted with saline to ≤ 10% ethanol.
(§3) Tumor-bearing mice were injected with approximately 10 MBq of ^68Ga-labeled DOTA-peptide or 1 MBq of ^177Lu-labeled DOTA-peptide to the tail vein via a catheter. Mice were sacrificed and dissected one or two hours after injection. Tumor, blood, stomach, pancreas, small intestine, colon, liver, spleen, kidney, heart, lung, muscle and femur samples were weighed and uptake of radioactivity was measured by a gamma counter. To determine the effect of unlabeled ligand on the tumor uptake, 200 nmol CG34 peptide (100-fold excess) was co-injected.

in vivo = conditions: female, mouse, iv, 10 MBq, total radioactivity
Excerpt: as §1, §2, §3

[2] = athymic NMRI-Foxn1^nu/Foxn1^nu, liver uptake
[3] = athymic NMRI-Foxn1^nu/Foxn1^nu, DU4475 tumor uptake
[4] = athymic NMRI-Foxn1^nu/Foxn1^nu, blood uptake
[5] = athymic NMRI-Foxn1^nu/Foxn1^nu, heart uptake
[6] = athymic NMRI-Foxn1^nu/Foxn1^nu, kidney uptake
[7] = athymic NMRI-Foxn1^nu/Foxn1^nu, lung uptake
[8] = athymic NMRI-Foxn1nu/Foxn1nu, colon uptake
[9] = athymic NMRI-Foxn1nu/Foxn1nu, femur uptake
[10] = athymic NMRI-Foxn1nu/Foxn1nu, pancreas uptake
[11] = athymic NMRI-Foxn1nu/Foxn1nu, small intestine uptake
[12] = athymic NMRI-Foxn1nu/Foxn1nu, stomach uptake
[13] = athymic NMRI-Foxn1nu/Foxn1nu, tumor-to-blood ratio
[14] = athymic NMRI-Foxn1nu/Foxn1nu, tumor-to-kidney ratio
[15] = athymic NMRI-Foxn1nu/Foxn1nu, tumor-to-liver ratio
[16] = athymic NMRI-Foxn1nu/Foxn1nu, tumor-to-muscle ratio
[17] = athymic NMRI-Foxn1nu/Foxn1nu, tumor-to-pancreas ratio

CSCC[C@H](NC(=O)CNC(=O)[C@@H]1CCCN1C(=O)[C@H](CC1CCCCC1)NC(=O)[C@H](Cc1ccc(O)cc1)NC(=O)CCCCCNC(=O)CN1CCN(CC(=O)O)CCN(CC(=O)O)CCN(CC(=O)O)CC1)C(=O)N[C@@H](Cc1ccc(O)cc1)C(=O)N[C@@H](C)C(=O)N[C@@H](Cc1ccccc1)C(=O)N[C@H](Cc1ccccc1)C(=O)O [[^68Ga]Ga-DOTA-AHX-CG36, metal not drawn] ({DOTA-Ahx}-Y[Cha]PGMYAF[dF]-OH)
difference in uptake between target-positive and target-negative tumor [1]: no clear difference in uptake between target-positive and target-negative tumor | tissue uptake at 1 h (in vivo; [2]): 6.4 %ID/g | tissue uptake at 2 h (in vivo; [2]): 4.9 %ID/g

CCCCCCCC(=O)NCCCC[C@H](NC(=O)CN1CCN(CC(=O)O)CCN(CC(=O)O)CCN(CC(=O)O)CC1)C(=O)N[C@@H](Cc1ccc(O)cc1)C(=O)N[C@@H](CC1CCCCC1)C(=O)N1C[C@H](O)C[C@H]1C(=O)NCC(=O)N[C@@H](CCCNC(N)=O)C(=O)N[C@@H](Cc1ccccc1)C(=O)N[C@H](C)C(=O)N1Cc2ccccc2C[C@H]1C(=O)N[C@@H](CO)C(=O)O [[^68Ga]Ga-DOTA-KCap-CG34, metal not drawn] ({DOTA}-K(Octanoyl)Y[Cha][Hyp]G[Cit]F[dA][Tic]S-OH)
DU4475 tumor uptake after two hours as % of the 1 h-value [1]: approx. 88% | higher uptake in CMKLR1-positive DU4475 tumors than in target-negative A549 tumors [1]: 1.4 fold | tissue uptake at 1 h (in vivo; athymic NMRI-Foxn1^nu/Foxn1^nu, A549 tumor uptake): 2.3 %ID/g | tissue uptake at 1 h (in vivo; [3]): 3.3 %ID/g | tissue uptake at 2 h (in vivo; [3]): 2.9 %ID/g | tissue uptake at 1 h (in vivo; [4]): 0.6 %ID/g | tissue uptake at 2 h (in vivo; [4]): 0.2 %ID/g | tissue uptake at 1 h (in vivo; [5]): 1.1 %ID/g | tissue uptake at 2 h (in vivo; [5]): 0.8 %ID/g | tissue uptake at 1 h (in vivo; [6]): 5.8 %ID/g | tissue uptake at 2 h (in vivo; [6]): 6.5 %ID/g | tissue uptake at 1 h (in vivo; [2]): 2.2 %ID/g | tissue uptake at 2 h (in vivo; [2]): 1.8 %ID/g | tissue uptake at 1 h (in vivo; [7]): 1.7 %ID/g | tissue uptake at 2 h (in vivo; [7]): 1.2 %ID/g | tissue uptake at 1 h (in vivo; athymic NMRI-Foxn1^nu/Foxn1^nu, muscle uptake): 0.6 %ID/g | tissue uptake at 1 h (in vivo; athymic NMRI-Foxn1^nu/Foxn1^nu, spleen uptake): 4.9 %ID/g | tissue uptake at 1 h (in vivo; [8]): 2.4 %ID/g | tissue uptake at 2 h (in vivo; [8]): 1.7 %ID/g | tissue uptake at 1 h (in vivo; [9]): 0.6 %ID/g | tissue uptake at 2 h (in vivo; [9]): 0.5 %ID/g | tissue uptake at 2 h (in vivo; athymic NMRI-Foxn1nu/Foxn1nu, muscle uptake): 0.4 %ID/g | tissue uptake at 1 h (in vivo; [10]): 0.9 %ID/g | tissue uptake at 2 h (in vivo; [10]): 0.7 %ID/g | tissue uptake at 1 h (in vivo; [11]): 2.3 %ID/g | tissue uptake at 2 h (in vivo; [11]): 1.9 %ID/g | tissue uptake at 2 h (in vivo; athymic NMRI-Foxn1nu/Foxn1nu, spleen uptake): 4 %ID/g | tissue uptake at 1 h (in vivo; [12]): 1.4 %ID/g | tissue uptake at 2 h (in vivo; [12]): 1.1 %ID/g | tissue to tissue ratio at 1 h (in vivo; [13]): 5.6 | tissue to tissue ratio at 2 h (in vivo; [13]): 18.2 | tissue to tissue ratio at 1 h (in vivo; [14]): 0.7 | tissue to tissue ratio at 2 h (in vivo; [14]): 0.6 | tissue to tissue ratio at 1 h (in vivo; [15]): 1.6 | tissue to tissue ratio at 2 h (in vivo; [15]): 1.8 | tissue to tissue ratio at 1 h (in vivo; [16]): 6.6 | tissue to tissue ratio at 2 h (in vivo; [16]): 7.2 | tissue to tissue ratio at 1 h (in vivo; [17]): 3.7 | tissue to tissue ratio at 2 h (in vivo; [17]): 4.3

C[C@@H](NC(=O)[C@H](Cc1ccccc1)NC(=O)[C@H](CCCNC(N)=O)NC(=O)CNC(=O)[C@@H]1C[C@@H](O)CN1C(=O)[C@H](CC1CCCCC1)NC(=O)[C@H](Cc1ccc(O)cc1)NC(=O)CCC(=O)NCCCOCCOCCOCCCNC(=O)CN1CCN(CC(=O)O)CCN(CC(=O)O)CCN(CC(=O)O)CC1)C(=O)N1Cc2ccccc2C[C@H]1C(=O)N[C@@H](CO)C(=O)O [[^68Ga]Ga-DOTA-TTDS-CG34, metal not drawn] ({X1-Suc}-Y[Cha][Hyp]G[Cit]F[dA][Tic]S-OH)
difference in uptake between target-positive and target-negative tumor [1]: no clear difference in uptake between target-positive and target-negative tumor
